Here are results for two molecules from patent US20250295799A1 (Zymeworks, published 2025).

The target in experiment [1] is T1, human GPC3 on cells (human, UniProt P51654 25-554).
T1 construct: GPI-anchored protein on transfected CHO-S cells, on human tumor cell lines or on HEK293T cells; the cell is named under assay; also called human GPC3 on CHO-S transfected cells; HuGPC3-CHO
The experiment in a line: flow cytometry, JHH-5 cells.

In experiment [2] the target is T1, human GPC3 on cells. The experiment in a line: flow cytometry, JHH-7 cells.

B1: v40213 (H18L6_LC_N33E mAb) (antibody, human IgG1, kappa, V domains shown)
VH: QVQLVQSGAEVKKPGSSVKVSCKASGYTFTDYEMHWVKQAPGHGLEWIGAIDPETGDTAYNQKFKGKATLTADTSTSTAYMELSSLRSEDTAVYYCTRYFSFAYWGQGTLVTVSS
VL: EIVLTQSPATLSLSPGERATISCRSSQSLRHSEGNTYLQWYQQKPGQAPRLLIYKVSNRFSGVPARFSGSGSGTDFTLTISSLEPEDFAVYFCYQSKHVPYTFGGGTKVEIKR
notes: as for v40203
Regarding B1, the “fold increase in Kd from wild-type” value in experiment [1] is about 29 fold.

B2: v40215 (H18L6_LC_N33V mAb) (antibody, human IgG1, kappa, V domains shown)
VH: QVQLVQSGAEVKKPGSSVKVSCKASGYTFTDYEMHWVKQAPGHGLEWIGAIDPETGDTAYNQKFKGKATLTADTSTSTAYMELSSLRSEDTAVYYCTRYFSFAYWGQGTLVTVSS
VL: EIVLTQSPATLSLSPGERATISCRSSQSLRHSVGNTYLQWYQQKPGQAPRLLIYKVSNRFSGVPARFSGSGSGTDFTLTISSLEPEDFAVYFCYQSKHVPYTFGGGTKVEIKR
notes: as for v40203
Consider B2, for which, in experiment [2], the “fold increase in Kd from wild-type” value is over 2 fold.
